Drawing on publication PMC9352680, “A comprehensive thermodynamic model for RNA binding by the Saccharomyces cerevisiae Pumilio protein PUF4”, this text covers Kd for 20 molecules.

The Kd is the constant that tells how readily two partners part at equilibrium. A low value points to higher affinity.

Residue numbers refer to the chain shown, from its start. Numbers in names are those of the source.

First the molecules themselves.
T1: PUF4 RNA-binding domain (Saccharomyces cerevisiae, UniProt P25339 537-888)
T1 sequence: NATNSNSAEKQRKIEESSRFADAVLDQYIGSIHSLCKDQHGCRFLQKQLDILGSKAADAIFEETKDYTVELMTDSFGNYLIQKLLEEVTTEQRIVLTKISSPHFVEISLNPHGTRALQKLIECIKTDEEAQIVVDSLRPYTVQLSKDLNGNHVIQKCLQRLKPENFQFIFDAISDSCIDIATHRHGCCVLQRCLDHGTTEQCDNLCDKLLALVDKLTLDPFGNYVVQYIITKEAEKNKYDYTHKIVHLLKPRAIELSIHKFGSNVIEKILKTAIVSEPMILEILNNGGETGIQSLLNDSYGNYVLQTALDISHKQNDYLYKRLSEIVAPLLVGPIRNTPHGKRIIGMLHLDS

B1: Ie_S2_P5E.1_K5.1_C5.1_H5.1_A5.1_F5.1_[+8CCC]_T5.1 (ssRNA)
RNA: UUUGAUUAAUAUGAUAUCGUUCUUUCUUGUAUUAUCCCUAUUCUUUCUCGAUAUCAUAUUAAUCUUU
B2: Ie_S2_P5E.1_K5.1_C5.1_H5.1_A5.1_F5.1_[+9CCT]_T5.1 (ssRNA)
RNA: B1 RNA with C36U
B3: Ie_S2_P5E.1_K5.1_C5.1_H5.1_A5.1_F5.1_[+9TTC]_T5.1 (ssRNA)
RNA: B1 RNA with C36U, C37U, C38U, U39C
B4: Ie_S2_P5E.1_K5.1_C5.1_H5.1_A5.1_F5.1_[+8TTC]_T5.1 (ssRNA)
RNA: B1 RNA with C36U, C37U
B5: Ie_S2_P5E.1_K5.1_C5.1_H5.1_A5.1_F5.1_[+9TCC]_T5.1 (ssRNA)
RNA: B1 RNA with C36U, C37U, U39C
B6: Ie_S2_P5E.1_K5.1_C5.1_H5.1_A5.1_F5.1_[+9CTC]_T5.1 (ssRNA)
RNA: B1 RNA with C36U, C38U, U39C
B7: Ie_S2_P5E.1_K5.1_C5.1_H5.1_A5.1_F5.1_[+8CCTC]_T5.1 (ssRNA)
RNA: UUUGAUUAAUAUGAUAUCGUUCUUUCUUGUAUUAUCCUCUAUUCUUUCUCGAUAUCAUAUUAAUCUUU
B8: Ie_S2_P5E.1_K5.1_C5.1_H5.1_A5.1_F5.1_[+9TCTC]_T5.1 (ssRNA)
RNA: B7 RNA with C36U, C37U, U38C, C39U, U40C
B9: Ie_S2_P5E.1_K5.1_C5.1_H5.1_A5.1_F5.1_[+9CCTC]_T5.1 (ssRNA)
RNA: B7 RNA with C36U, U38C, C39U, U40C
B10: Ie_S2_P5E.1_K5.1_C5.1_H5.1_A5.1_F5.1_[+8CCCT]_T5.1 (ssRNA)
RNA: B7 RNA with U38C, C39U
B11: Ie_S2_P5E.1_K5.1_C5.1_H5.1_A5.1_F5.1_[+8TTCC]_T5.1 (ssRNA)
RNA: B7 RNA with C36U, C37U, U38C
B12: Ie_S2_P5E.1_K5.1_C5.1_H5.1_A5.1_F5.1_[+8C]_T5.1 (ssRNA)
RNA: UUUGAUUAAUAUGAUAUCGUUCUUUCUUGUAUUAUCUAUUCUUUCUCGAUAUCAUAUUAAUCUUU
B13: Ie_S2_P5E.1_K5.1_C5.1_H5.1_A5.1_F5.1_[+8TC]_T5.1 (ssRNA)
RNA: UUUGAUUAAUAUGAUAUCGUUCUUUCUUGUAUUAUUCUAUUCUUUCUCGAUAUCAUAUUAAUCUUU
B14: Ic_S2_P3E.1_K3.1_C3.1_H3.1_A3.1_[T5C]_F3.1_T3.1 (ssRNA)
RNA: UUUGAUUAAUAUGAUAUCGUUCUUUCUUGUACAUAUUCUUUCUCGAUAUCAUAUUAAUCUUU
B15: Ib_S2_P3E.1_K3.1_C3.1_H3.1_[G2C]_[A4C]_A3.1_F3.1_T3.1 (ssRNA)
RNA: B14 RNA with G29C, A31C, C32U
B16: Ib_S2_P3E.1_K3.1_C3.1_H3.1_[G2C]_[A4T]_A3.1_F3.1_T3.1 (ssRNA)
RNA: B14 RNA with G29C, A31U, C32U
B17: Ie_S2_P5E.1_K5.1_C5.1_H5.1_A5.1_[+7CCTCT]_F5.1_T5.1 (ssRNA)
RNA: UUUGAUUAAUAUGAUAUCGUUCUUUCUUGUAUUACCUCUUUAUUCUUUCUCGAUAUCAUAUUAAUCUUU
B18: Ie_S2_P5E.1_K5.1_C5.1_H5.1_A5.1_F5.1_[+8CCCTT]_T5.1 (ssRNA)
RNA: B17 RNA with C35U, U37C
B19: Ie_S2_P5E.1_K5.1_C5.1_H5.1_A5.1_F5.1_[+8CTCTC]_T5.1 (ssRNA)
RNA: B17 RNA with C35U, U40C
B20: Ie_S2_P5E.1_K5.1_C5.1_H5.1_A5.1_[+7TTCCT]_F5.1_T5.1 (ssRNA)
RNA: B17 RNA with C35U, C36U, U37C

The target of the data set is T1, PUF4 RNA-binding domain. Nature of the data set: Mg; RNA-MaP; 20 mM Na-HEPES pH 7.4, 30 mM KOAc, 0.75 mM MgCl2, 0.1% Tween-20, 5% glycerol, 0.1 mg/mL BSA, 2 mM DTT; 25 C; 0.0125-409.6 nM protein. As to conditions: tags: N-His6-TEV cleaved; C-SNAP kept, Cy3B-labelled; label: tethered on chip by stalled RNA polymerase.
B1 had a Kd of 12.8 nM.

B2 displayed a Kd of 7.29 nM.

B3 registered a Kd of 14.1 nM.

For B4, the Kd stood at 7.64 nM.

As to B5, binding was characterised by a dissociation constant (Kd) of 15.6 nM.

Turning to B6, binding was put at a Kd of 22.6 nM.

Consider B7, for which binding was characterised by a dissociation constant (Kd) of 15.8 nM.

For B8, the Kd came out at 10.2 nM.

Molecule B9 had a Kd of 16.4 nM. This Kd lies about 1.6-fold higher than the previous one.

B10 yielded a Kd of 11.6 nM.

As to B11, binding was characterised by a dissociation constant (Kd) of 9.45 nM.

B12 returned a Kd of 11.6 nM.

B13: the Kd was found to be 10.3 nM.

Take B14: the affinity, expressed as Kd, was 1.76 nM.

B15 came in with a Kd of 2150 nM.

With B16, the equilibrium dissociation constant (Kd) stood at 1670 nM.

On to B17, for which binding was put at a Kd of 57.6 nM.

The molecule B18 gave a Kd of 15.2 nM.

B19 yielded a dissociation constant Kd of 13.1 nM.

The molecule B20 showed a Kd of 7.84 nM. Against the preceding molecule, the Kd is about 1.7-fold lower.
